A protein production outcome set (Wang et al. 2014)

experiment: label from the status in PepcDB records

Row | Sequence | protein production
1 | MTRYALLVRGINVGGKNKVVMAELRQELTNLGLEKVESYINSGNIFFTSIDSKAQLVEKLETFFAVHYPFIQSFSLLSLEDFEAELENLPAWWSRDLARKDFLFYTEGLDVDQVIATVESLELKDEVLYFGKLGIF | failed
2 | MTSAAMATAYFDKGNQCAARCDWLGAIEAFDHCLSLNPRDWQALANRGNAKVQREDLSGALEDYLAAAALNPSSCNIKSNLAVLLKELGELDLAAALLEEVLAAEPAHVDAWSNLGIVRQHQRRYQDAIACQQNALAIAGPSVARYSNLGNAYSCALMLDAAIEVQRKGLELAPDDANLQFNQSITLLTAGRYAEAWPLYEARWRSVLRPRLTQKRWQGEALGERTLLLWSEQGLGDSLQMVRLLSCLRRAHPQARLLLACPVSFHRLFAQFDGVSLLPADALPEHDCQLPLMSLPWLLGITLDNLPTEPYLRVPGGMVPPLPAASRRRVGVVWESGLWGVGVADLGRQHKSIPAGLFAEICRVPGIEFIALQPGGVPAELSDWVRACPISDFADTAALAAQMDLVICVDTAILHLAGAMGRPVWALLRAESAPFFLADAETAPWYPSVKLWRQPAPGAWEPMLKQIAEALAGRQTF | failed
3 | MTSASAPSFNPGKGPGSAVGIALLGFGTVGTEVMRLMTEYGDELAHRIGGPLEVRGIAVSDISKPREGVAPELLTEDAFALIEREDVDIVVEVIGGIEYPREVVLAALKAGKSVVTANKALVAAHSAELADAAEAANVDLYFEAAVAGAIPVVGPLRRSLAGDQIQSVMGIVNGTTNFILDAMDSTGADYADSLAEATRLGYAEADPTADVEGHDAASKAAILASIAFHTRVTADDVYCEGISNISAADIEAAQQAGHTIKLLAICEKFTNKEGKSAISARVHPTLLPVSHPLASVNKSFNAIFVEAEAAGRLMFYGNGAGGAPTASAVLGDVVGAARNKVHGGRAPGESTYANLPIADFGETTTRYHLDMDVEDRVGVLAELASLFSEQGISLRTIRQEERDDDARLIVVTHSALESDLSRTVELLKAKPVVKAINSVIRLERD | failed
4 | MTSETNIRTLVVDDSDFFAEMTADTLTQQHDIESVAANSAAEALERLEGGGFDCVVSDYEMPEMDGLELLEAIRETNPSIPFILLTGRGDEETASAAIAAGVADYLLKLEVVEDKQYGRLANRIENVVSQERTRKKFESLVSDSPDGIVHLTTNGTILSVNPSMAGRLGADPDTLVGQQLSAVMDSEAANQRLEAGKSAVENGTATRSEDAVGGRHYHNQYIPVDSHRKSDTFQLVSRDITERVERQRELERQNDRLEEFASVVSHDLRNPLNVAQGAVDLLGEPADSKEAELVAKIDRSLDRMGCIIEDVLTLARQGQTVSDPQETELSTLASTAWTWIEAEQASMSVASSTKLAADSGRAQDLLANLFRNAIEHNDGDVEIEIGLLESNDGFYIADNGEGVEGDAEDVFEMGYSSTKDGTGFGLAIVEQVAEAHGWEVSLTESDSGGARFEVSSVELHD | failed
5 | MTSFAQLDIKSEELAIVKTILQQLVPDYTVWAFGSRVKGKAKKYSDLDLAIISEEPLDFLARDRLKEAFSESDLPWRVDLLDWATTSEDFREIIRKVYVVIQEKEKTVEKPTAL | not failed
6 | MTSHTPKFHRLAIAELRRETQDAVSMSFTIPDEIAADYTFAPGQYLTLRTTLDGEELRRSYSICSGPDDRELRIAVKKVNGGAFSGWALEQLKSGDQIEVMTPSGRFGVAHAPGESRVHVGFAAGSGITPLISIIRGILAREPNSRFFLFYGNRTTSNILFRQALQDLKDRFMARLAVFHVLSQEEQDLPILHGRLDRDRVTLLLRAMLPAQAIDHVFICGPTAMSEEIAATCAELGVPADRVHVERFVAGSGGKPRPTPVIAPQAPPAAIAALIIDGKRKEVPVAAGEAILDAALRAGIDLPYACKGGMCSTCRAKVVEGETRMDVNYSLEPWELDAGFVLTCQAHPVSDRVVIDYDAV | failed
7 | MTSKHFISKKEAKRIWEAMARYGIDITGESLEVAAQKSASAYYIGGKPMVFQAGDLIPSVYLLNYRNPSRNIVTVDEGAEPHILNGSDLFAPGIVSMDDSIRKGDMIFVKSSKGYFIAVGMAEMDAGEVMATKRGKAARIIHFPGDELIRAFP | not failed
8 | MTSLNRPPFDFKTQYSLGFNAQDDEIVVDFFCGGGGAGTGLEMGLGRKVSVAKNHSAAAISMHTANHPGAKHFTTDVFDGDPDTECGGKAVGWFHMSPDCTHHSQAAGGQPRKREIRNLSWIGLKWAGKKKPRVVSLENVKQILQWGPLVAKRCKSTGRVVKLGGGIAAPGEVVPVDQQFLVPDPARRGQTWAVFVAELERLGYAVEWRVVRACDFGAPTSRERLFMIARCDGQSIVWPEPTHAKRPSKGQQPLKSAAECIDFSDLGKSIFERKKDLAQATLRRVAKGM | failed
9 | MTSNGQQGKPNLPEKDNLPRELGTQRINSPIARMGMFGAKTTGDTSGYGRLRVYRHVPAAAQRPYSDPSDPRTAYFDEVADALERSLKEIGTPYDTAISRVVVDRGEITFHVQREHLLDVATRLRDDPALRFELCLGVTGVHYPEDEGNELHAVYALRSITHNYEIRLEVSCPDSDPHIPSIVSVYPTNDWHEREAWDFFGIIFDGHPALTR | not failed
10 | MTSPSSAFPDGHGARLDAQSIRFERLLPGPIERVWAWLADADKRARWLAGGELPRQPGQTFELHFNHAALTAETAPARYAQYDRPIVARHTLLRCEPPRVLALTWGGGAGEAPSEVLFELSEAGEQVRLVLTHTRLADRAAMLDVAGGWHAHLAVLAGKLAGQAPPPFWTTLAQAEQDYEQRLLEHHHHHH | not failed
11 | MTSQITANGTQRLPEPVSEHEAVPPPPPTAAGRPRPPTSQLFSRGNLASSRATGGDKSGLARPSTAVRAVGYAANCESAHQRFEQFFLEKAKQQTLSSRAAVDAIKDVNPQMKYKNLEEKIVKLLESSIVLAWQGSPNKLLNLDTKLAEALSKAKEAFSLDRTLHQFRDQHGENVYHNFDLTYAQYERSEMHIEALNTYSIMAKNKMFPHVNQLKLNMGNIYYSMGIYQKAVKMYRMALDSVPKSLSQLRLKIRENIGILFIRMGSYSDAASSFEFIMTERANIRSSIHLLLCYFALGDVEKVKLAFRRLCDVQTEAIESDMESETNIIKLQQQAEPIQQIGETDGYQSLNNEPVTGSVIKAEGGGKLNETVKFAATVKHRYVVQALKKDELAVYRNERRNAVKRSITMIVDLISPFIEDNYNDGYNWCIEIIKTSNLAWLANELELNKALVYLRQNDVHQAIETLQMYDRKSEGSMTASALTNLSFIYIKMASHCVNQLHEIGSLKNNAPGLINAGIVELGSHNLILASERFEGALQLQPMNFEARYNLGLVALAQNDYELAEERFELLKEQLMLPSSVQHSHVFYQLAKLQERRLESGLISNFTPGAALQAYLQVVGISASDIDSRLFEKVGSLYEQIQDHQEANQYYNEAYRINMSDIGIASSIGSYYIKLQATERALFYYERAVLADPNDPNLMLRIASCFRNSYLPTKQYLGLFQKIHARFPDNLTCIRALMQVTKSLELGDLYERYASEYTRLQSQQQERQSEQRYQQQRFPSAAKFTIRQSNEEHLKEVGENFNSVVHTQSPYTSILQFDPLGPPAERPKTGRPLQSRDDVDDDAEMNPESLLPI | failed
12 | MTSRSATATARTSSEARAVARTQTLIKGEHGIGTVRRTTLPGGLRIVTETLPSVRSATFGIWAHVGSRDETPALNGATHYLEHLLFKGTRKRSALDISSAIDAVGGEMNAFTAKEYTCYYARVLDTDLPLAIDVVCDMLTGSLIQEEDVDVERGAILEEIAMTEDDPGDCVHDLFAHTMFGDNALGRPVLGTVDTVNALTADRIRRFYRKHYDPTHLVVAAAGNVDHNKVVRQVRAAFEKSGALKDPAAQPLAPRAGRRTVRAAGRVELIGRKTEQAHVILGMPGLARTDERRWAMGVLNTALGGGMSSRLFQEVREKRGLAYSVYSYTSGFADCGLFGVYAGCRPSQVHDVLKICRDELDHVAEHGLTDDEIGRAVGQLQGSTVLGLEDTGALMNRIGKSELCWGEQMSVDDMLARIASVTPDDVRAVARDVLGRRPSLSVIGPLKDKQASRLHDAVA | failed
13 | MTSSPTSTQESSTSWYLLLQQLIDGESLSRSQAAELMQGWLSEAVPPELSGAILTALNFKGVSADELTGMAEVLQSQSKMGTGENYSQLPITNSPFSIIDTCGTGGDGSSTFNISTAVAFVAAAYGVPVAKHGNRSASSLTGSADVLEALGVNLGASPEKVQAALQEVGITFLFAPGWHPALKAVATLRRTLRIRTVFNLLGPLVNPLRPTGQVVGLFTPKLLTTVAQALDNLGKQKAIVLHGRERLDEAGLGDLTDLAVLSDGELQLTTINPQEVGVTPAPIGALRGGDVQENAEILKAVLQGKGTQAQQDAVALNAALALQVAGAVPLLDHAQGVSVAKEILQTGTAWAKLAQLVYFLGN | not failed
14 | MTSSRVNSLIVGGFVLILLGGIIAAATILAGKTGSTDTYFTSYDNVTGIKYGTQVLYEGYRIGQVDEIIPEQRAEGTSFRLRLAVQKGWRIPEGSQTTIATSGLLSAVAINIRGGTAEASLTPGSEIPGGASGGMFAAINDLASEVGTLSRDGLEPLVAKLNAYVDTLGGSLADNLPAILGNARITSEAIARDLPPIIARVDRFTARLDAEVLSQKNIDGLGASIGNISAFSAELNGLGRELRQTGQTLDGMVAGSAPLVDSSLRDLRYTLRALASSIDAITFNMEGASRDMKEFSRSLRQNPGVLLRGSAPAEDGR | failed
15 | MTSTCTICERIKLIQAHQNPYFVYELTTGYVVLADSQYFEGYTLFLAKHHVTELHHLPAHEKLRYLEEMSIVQEACAQAFHADKMNIELLGNGDAHVHWHLFPRHNGDTPNPGPVWWTPLETIYGDDVSLDIPRLSRLKRTLSVAIEATLNAREAELQALEALTRPASHRIDSN | failed
16 | MTSTETPLNSPAAAADRRRWFALAIVMTAAFMDLVDVTIVNIAIPSIQRDAGASWGQIQWITAGYALAFAAGLITGGRLGDIHGRKRLFLIGIGGFTLASALCGFAANPEMLVASRILQGGMAAMMVPQVLSIVHATFPAHERGKVFGLFGAIVGLGAVSGPLLGALLTEWNLFGLEWRPIFLINLPVGVAGLILGRRFITESKAPRALKLDLVGVALVTLGLLMLLYPLTRGRELGWPLWGHVSMAGALVVFAALVAYERRKTARDGSPLVELSLFKVKSFAAGIAVQTVFGIALGIFFLVWTLYMQMGLGWSALRAGLTGVPFSIAVSAAAGMSVQLLVPRFGRKVLQAGALLMALGVLLYIWESDRYGMAIASWQMALPLVVMGAGMGFIVAPLTDAVLSEVPREHSGSASGLINTVQQMGNALGLGLVSVVFFGEIGDRLTRAQVGPAFAHAFQHALGWVAVVLAVIFLLMFALPKRPAQHVEGAGAADTLGEKEPVLVP | failed
17 | MTSTPGISDSLLSSMNGSGANNNTSAISETQDRFMKLLIAQMKNQDPLNPMDNAEVTSQMAQLSTVTGIEKMNASLSTFISSMQATQALQASSLIGNTVLVEGNSTYLAPAETEGESAAYLGVELPIGADKLTVNIKNGAGNVVKTITVTNQPAGISSLGWNGYGDDGTKLPDGRYTIEATATTGNSSVASTPLSYEQVMSVSTGSDGVKLNLSNLAAITTDQIKQIF | not failed
18 | MTSVMPFAHLLLALLVVFVWGINFIFVKLSLEEFSPLLLCAVRFLLASVPAVFFIKPPAVPFKIIASYGLIMFALQFALLFIGLRVGMTPGVASLLMQVQVFFSMFFAIIFLGEQPQVGQIIGALIAFIGIGVVALHFDHNVSLMGFLCILAAAASWGIGNLITKKIHSVNLIAVIVWSSFVACLPMFILSLVFEGPESFVTAYEHMTWKGILSVLYIVYISTWVGYGVWNWLISRYPVGMVVPFTLLVPVVGILSSVLILGEPFYLWKLVAGLLVISGLCINLLTTRLFVAKTQQPETA | failed
